Experimental data published in publication PMC5344419, “The structure of FKBP38 in complex with the MEEVD tetratricopeptide binding-motif of Hsp90” (PLoS ONE, 2017).

B1: FKBP8 (FKBP^1-380), amino acids 1-380, lacking the C-terminal trans-membrane helix (domain or fragment, UniProt Q14318 1-380, looked up)
chain: MASCAEPSEPSAPLPAGVPPLEDFEVLDGVEDAEGEEEEEEEEEEEDDLSELPPLEDMGQPPAEEAEQPGALAREFLAAMEPEPAPAPAPEEWLDILGNGLLRKKTLVPGPPGSSRPVKGQVVTVHLQTSLENGTRVQEEPELVFTLGDCDVIQALDLSVPLMDVGETAMVTADSKYCYGPQGRSPYIPPHAALCLEVTLKTAVDGPDLEMLTGQERVALANRKRECGNAHYQRADFVLAANSYDLAIKAITSSAKVDMTFEEEAQLLQLKVKCLNNLAASQLKLDHYRAALRSCSLVLEHQPDNIKALFRKGKVLAQQGEYSEAIPILRAALKLEPSNKTIHAELSKLVKKHAAQRSTETALYRKMLGNPSRLPAKCPG
notes: FKBP8, amino acids 1-380, lacking the C-terminal trans-membrane helix; numbers count on full-length FKBP8 (Arg 184 is Arg 127 in FKBP38 numbering); Non-cleavable C-terminal His6 tag from pDMXV4; also called FKBP8 isoform; not shown: His6, C-terminal, kept

Experiments:
Conditions in all cases: both partners purified
[1] = biological target: B1; assay: ITC; 2 mM peptide injected into 50 μM FKBP^1-380 in the cell; ITC200; 20 mM Tris, 300 mM NaCl, 1 mM EDTA pH 7.5
Full-length human Hsp90β = biological target: T1, Full-length human Hsp90β (human, UniProt P08238 1-724); assay: ITC; 700 to 800 μM FKBP construct injected into 50 μM Hsp90 or Hsp70 protein in the cell; ITC200; 20 mM Tris, 300 mM NaCl, 1 mM EDTA pH 7.5
T1 construct: Hsp90β, human, full length; Expressed from pRSETA as a His-tagged fusion; also called intact Hsp90β

[2] = biological target: B1; assay: as above
[3] = biological target: T2, Hsp90β^295-724, middle and C-terminal domain fragment of human Hsp90β (human, UniProt P08238 295-724); assay: as above
T2 construct: Hsp90β, human, residues 295-724 (middle and C-terminal domain, with the MEEVD motif); Expressed from pRSETA as a His-tagged fusion; also called Hsp90^295-724
T2 sequence (P08238 295-724): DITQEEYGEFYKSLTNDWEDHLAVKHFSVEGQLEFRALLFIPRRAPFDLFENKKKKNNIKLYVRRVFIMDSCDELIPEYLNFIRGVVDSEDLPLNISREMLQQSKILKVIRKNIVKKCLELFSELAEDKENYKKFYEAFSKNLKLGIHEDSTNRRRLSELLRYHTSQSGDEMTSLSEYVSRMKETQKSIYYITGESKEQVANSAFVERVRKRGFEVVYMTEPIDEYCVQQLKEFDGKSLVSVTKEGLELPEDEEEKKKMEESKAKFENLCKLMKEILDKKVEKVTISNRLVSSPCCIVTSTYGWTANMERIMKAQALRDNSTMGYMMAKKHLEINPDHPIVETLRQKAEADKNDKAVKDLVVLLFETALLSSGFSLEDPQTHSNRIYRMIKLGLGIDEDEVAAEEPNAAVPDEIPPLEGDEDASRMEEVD

T1 sequence (P08238 whole entry, the tested form may be a part): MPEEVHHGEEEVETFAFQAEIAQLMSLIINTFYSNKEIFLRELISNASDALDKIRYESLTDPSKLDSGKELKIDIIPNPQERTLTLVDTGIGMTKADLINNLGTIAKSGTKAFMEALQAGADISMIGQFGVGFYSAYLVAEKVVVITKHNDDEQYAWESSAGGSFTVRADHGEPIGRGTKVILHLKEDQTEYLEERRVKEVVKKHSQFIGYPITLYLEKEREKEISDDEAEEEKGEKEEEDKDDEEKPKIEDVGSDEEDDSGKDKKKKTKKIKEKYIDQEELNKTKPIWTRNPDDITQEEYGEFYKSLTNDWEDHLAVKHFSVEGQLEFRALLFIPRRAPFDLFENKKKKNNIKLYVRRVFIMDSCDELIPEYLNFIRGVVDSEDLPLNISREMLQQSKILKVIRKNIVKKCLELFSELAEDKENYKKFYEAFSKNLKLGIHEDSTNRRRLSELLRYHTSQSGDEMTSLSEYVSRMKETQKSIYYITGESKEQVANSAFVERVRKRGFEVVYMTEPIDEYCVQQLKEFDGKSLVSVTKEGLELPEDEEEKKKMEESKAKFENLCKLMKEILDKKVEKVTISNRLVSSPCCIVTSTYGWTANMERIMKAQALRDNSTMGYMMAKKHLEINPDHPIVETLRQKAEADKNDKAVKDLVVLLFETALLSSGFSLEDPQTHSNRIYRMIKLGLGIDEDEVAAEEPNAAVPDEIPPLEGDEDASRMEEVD

Kd [1] [µM] | Kd (Full-length human Hsp90β) [µM] | stoichiometry N (Full-length human Hsp90β) | Kd [2] [µM] | Binder | other results
64.5 ± 3.7 | – | – | – | EDASRMEEVD (the terminal ten amino-acid residues of Hsp90β) [Hsp90β EDASRMEEVD C-terminal peptide] | –
– | 2.6 ± 0.2 | 1 | – | FKBP38 isoform (FKBP^92-380), immunophilin and TPR domain (domain or fragment, UniProt Q14318 92-380, looked up, FKBP8, fragment 92-380 containing both the immunophilin (PPIase) and TPR domain; numbers count on full-length FKBP8; also called FKBP8^92-380; not shown: His6 (from the vector pDMXV4), C-terminal, kept) EWLDILGNGLLRKKTLVPGPPGSSRPVKGQVVTVHLQTSLENGTRVQEEPELVFTLGDCDVIQALDLSVPLMDVGETAMVTADSKYCYGPQGRSPYIPPHAALCLEVTLKTAVDGPDLEMLTGQERVALANRKRECGNAHYQRADFVLAANSYDLAIKAITSSAKVDMTFEEEAQLLQLKVKCLNNLAASQLKLDHYRAALRSCSLVLEHQPDNIKALFRKGKVLAQQGEYSEAIPILRAALKLEPSNKTIHAELSKLVKKHAAQRSTETALYRKMLGNPSRLPAKCPG | –
– | – | – | 8.3 ± 0.6 | Hsp90α^464-732, C-terminal domain of human Hsp90α (domain or fragment, Hsp90α, human, residues 464-732 (C-terminal domain); Expressed from p2E as a PreScission cleavable His-tagged fusion; also called C-terminal domain of Hsp90α) not shown | –
– | 2.8 ± 0.1 | 1 | – | B1 | Kd [3]: 6.4 ± 0.5 µM
– | – | – | 2.3 ± 0.2 | Yeast C-terminal fragment of Hsp90 (yHsp90^546-709) (domain or fragment, Expressed from pRSETA as a His-tagged fusion; also called C-terminal domain of yeast Hsp90) not shown | –
147 | – | – | – | GSGPTIEEVD (C-terminal peptide of human Hsp70) [Human Hsp70 GSGPTIEEVD C-terminal peptide] | –
